From doi:10.1101/2021.02.07.430097, “Molecular and structural mechanisms of ZZ domain-mediated cargo recognition by autophagy receptor Nbr1” (bioRxiv, 2021)

B1: Nbr1(53-180) of the Ams1-Nbr1 fusion protein (domain or fragment, S. pombe, UniProt Q9P792 53-180, looked up)
chain: PTLRSSSVACNTCLKIIRNDSFHCTKCFDFDVCRDCYAKQAFLHPCPKPHFVLVRSSIPSVASLTCSVNSMSVSPQSNFMYAICDHCEQPIHNVRYKCSVCDDYDICESCLTDNSHSNTHAFVRITKA
notes: S. pombe Nbr1 residues 53-180 (ZZ1 and ZZ2); residues 59-108 are in the model; written as a molecule of its own for the pair; also called Nbr1-ZZ1; ZZ1; source: S. pombe, Pnmt1 promoter, purified (GFP-Trap beads, released by 3C protease); not shown: MBP, C-terminal, kept; GFP, C-terminal, cleaved
B2: Ams1 (full length) of the Ams1-Nbr1 fusion protein (enzyme, S. pombe, UniProt Q9UT61 2-1077, looked up)
chain: TLFPVLNNTPVGKQVDSIYESRLDQFLSEGQYRDFNLPSVYDHARIDNPSGDVNNDLSKGFVDLKVYRVPDLSRPSFNEVVGHKKFDETASKGDTFGPSWATFWFEVHIRLPKSWAKYEQVIFQWNCDNEGLVYSQDGVPLQAFSGSERTDFILPDSWKTTEDTFYIEMACNGMFGTGAGSQIAPPDPNRYFTLTKADLVAPNLPAMALAYDFLLMQQCVKQLPSNCWQKYKARQICNDIMNTFHPNDLSTINECRNLAKAFLGNDIDSEAVFEKNNDKANVFAIGHCHIDTAWLWPFAETRRKIVRSWATQMNIMDRYPEYQFVCSQALQYLWLKEDHPDVFEKLKEYVNQNKFIPIGGSWVEHDTNIPNGESLIRQFLLGQHFFEKEFGVRCRTFWLPDTFGYSSQIPQICRLCGMDRFLTQKLSWNNINSFPTSTFNWVALDGSQVICHMPPANTYTADTNVNDVLHSIDQHKNLVNDQAGLLVFGIGDGGGGPTPEMLEKLRRCKGIANTVGYLPNVKLGNTVDEFFDGILKRTNAGQTLPSWNGELYFEFHRGTYTTQAELKKLMRKVEIALHDAEYVSTLASIFSKDYSYPKESLQDLWRDTLLCQFHDVLPGSCIEMVYKDAIPIMSKVLKNTEALLWQAIEQLGFKKASSSDNKEQLCLLNTLPWNVRGVITETEENKLVYFESCDGKGILTAAHTSLKHPAAAYQKDDNFILVNDHLRVTIAPNGLILSLFDLHKEREILDLKSGKNHAGANQYVLFEDTPLSWQAWDTEVFSLEKYEVLDKGKVSIKESGPLRASVVVDIPISELSHMKATISLEGYNDCSEFTGVNFTCEVDWHESCKFLKVEFPVDIHSEFASYETQFGITKRPTHYNTSWDVAKFEVCHQKFADYSDFTYGVSVLNDCKYGFSTHGNLMRLSLLRSPKQPDAHADMGKHTIRYAVYPHSKPLDSSTVRAAHKFNSNFRLLTRASDTANLDIFDAFQLVGEPNVILSHIKMAEKGKSIILRVYESLGGKSRARLVIKSLTVASVTKCNGLEEDLEELCTLKSNDYYEVPIELRAFEIATFKVNL
notes: S. pombe alpha-mannosidase Ams1 (SPAC513.05), full length; the first methionine is removed in vivo, T2 is the most N-terminal residue in the density map; residues 2-1077 are in the model; written as a molecule of its own for the pair; also called Ams1_1; Ams1_3; source: S. pombe, Pnmt1 promoter, purified (GFP-Trap beads, released by 3C protease)

How the values were obtained:
[1] = target: B2; test: cryo-EM structure; Ams1-linker-Nbr1(53-180)-MBP fusion protein purified from S. pombe; 2.4 Å, D2 symmetry; conditions: both partners purified
[2] = target: the molecule itself; test: as above

| Binder | stoichiometry N [1] | stoichiometry N [2] |
| --- | --- | --- |
| B1 | 4 Nbr1-ZZ1 molecules per Ams1 tetramer | – |
| B2 | – | 4 |
